Test results from PMC7532178, “Interaction of protocadherin-15 with the scaffold protein whirlin supports its anchoring of hair-bundle lateral links in cochlear hair cells” (Scientific Reports, 2020).
No end group written: not given here. *: point of attachment. Biotin = O=C1N[C@H]2[C@H](CS[C@H]2CCCCC(=O)*)N1; TTDS = trioxatridecan-succinamic acid spacer

T1: whirlin PDZ1-Hp (aa residues 137-246) (mouse, UniProt Q80VW5-1 137-246)
T1 construct: extra 7 aa at the N-terminus of all recombinant proteins of the study; whirlin, residues 137-246: PDZ1 with its hairpin extension Hp1; also called PDZ1 + Hp1; whirlin PDZ1-Hp1 fragment
T1 sequence: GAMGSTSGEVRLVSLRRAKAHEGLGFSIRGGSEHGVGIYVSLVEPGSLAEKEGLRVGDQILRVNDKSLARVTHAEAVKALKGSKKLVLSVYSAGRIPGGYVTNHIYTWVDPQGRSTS

T2: whirlin-PDZ1 (aa residues 137-228) (mouse, UniProt Q80VW5-1 137-228)
T2 construct: extra 7 aa at the N-terminus of all recombinant proteins of the study; whirlin, residues 137-228: PDZ1 domain; also called whirlin PDZ1 domain alone; source: E. coli BL21 (DE3) codonPlus-RIPL, purified (Glutathione Sepharose 4B, GST removed by TEV proteinase, SEC)
T2 sequence: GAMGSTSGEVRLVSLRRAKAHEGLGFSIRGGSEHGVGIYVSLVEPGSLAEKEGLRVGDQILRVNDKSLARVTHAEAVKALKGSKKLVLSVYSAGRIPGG

T3: whirlin-PDZ2 (aa residues 272-368) (mouse, UniProt Q80VW5-1 272-368)
T3 construct: extra 7 aa at the N-terminus of all recombinant proteins of the study; whirlin, residues 272-368: PDZ2 domain; source: E. coli BL21 (DE3) codonPlus-RIPL, purified (Glutathione Sepharose 4B, GST removed by TEV proteinase, SEC)
T3 sequence: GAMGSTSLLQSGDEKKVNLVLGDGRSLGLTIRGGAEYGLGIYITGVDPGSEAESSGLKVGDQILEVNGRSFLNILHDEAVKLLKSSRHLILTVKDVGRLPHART

T4: whirlin-PDZ3 (aa residues 821-915) (mouse, UniProt Q80VW5-1 821-915)
T4 construct: extra 7 aa at the N-terminus of all recombinant proteins of the study; whirlin, residues 821-915: PDZ3 domain, common to L- and S-whirlin; also called whirlin PDZ3 domain
T4 sequence: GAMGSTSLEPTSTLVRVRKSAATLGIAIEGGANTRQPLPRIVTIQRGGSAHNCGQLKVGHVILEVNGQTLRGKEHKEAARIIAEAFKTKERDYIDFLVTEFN

T5: whirlin-HHD1 (aa residues 30-121) (mouse, UniProt Q80VW5-1 30-121)
T5 construct: extra 7 aa at the N-terminus of all recombinant proteins of the study; whirlin, residues 30-121: harmonin-homology domain 1 (HHD1); also called HHD1 domain alone; source: E. coli BL21 (DE3) codonPlus-RIPL, purified (Glutathione Sepharose 4B, GST removed by TEV proteinase, SEC)
T5 sequence: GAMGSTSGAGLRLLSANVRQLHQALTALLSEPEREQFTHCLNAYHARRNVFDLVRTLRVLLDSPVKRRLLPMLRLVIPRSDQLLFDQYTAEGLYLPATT

T6: whirlin-NTR (aa residues 2-147) (mouse, UniProt Q80VW5-1 2-147)
T6 construct: extra 7 aa at the N-terminus of all recombinant proteins of the study; also called entire NTR of whirlin (containing the HHD1 domain); source: E. coli BL21 (DE3) codonPlus-RIPL, purified (Glutathione Sepharose 4B, GST removed by TEV proteinase, SEC)
T6 sequence: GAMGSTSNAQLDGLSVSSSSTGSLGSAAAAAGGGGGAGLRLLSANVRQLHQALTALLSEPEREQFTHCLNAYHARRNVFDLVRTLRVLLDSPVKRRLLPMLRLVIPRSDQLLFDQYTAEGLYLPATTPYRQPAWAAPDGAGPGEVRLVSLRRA

B1: PCDH15-CD3 C-terminal peptide (biotin-TTDS-MGPWNSLHIPMTKL) (peptide)
peptide: {Biotin-TTDS}-MGPWNSLHIPMTKL
notes: C-terminal 14 aa of protocadherin-15 isoform CD3, including the PBM; source: synthetic peptide (Eurogentec); not shown: biotin, N-terminal, kept
B2: PCDH15-CD2 C-terminal peptide (biotin-TTDS-GANSEQYNTAL) (peptide)
peptide: {Biotin-TTDS}-GANSEQYNTAL
notes: C-terminal 11 aa of protocadherin-15 isoform CD2, including the PBM; source: synthetic peptide (Eurogentec); not shown: biotin, N-terminal, kept
B3: PCDH15-CD1 C-terminal peptide (biotin-TTDS-GIDVQPHSQSTSL) (peptide)
peptide: {Biotin-TTDS}-GIDVQPHSQSTSL
notes: C-terminal 13 aa of protocadherin-15 isoform CD1, including the PBM; source: synthetic peptide (Eurogentec); not shown: biotin, N-terminal, kept

Legend:
Test in all cases: SPR; ProteOn XPR 36; N-terminally biotinylated peptides captured on a Neutravidin NLC sensor chip, whirlin fragments flowed as analytes at 20 μL/min for 2 min; 250 mM NaCl, 50 mM Tris pH 7.5, 0.5 mM TCEP; steady-state fit Req = (Rmax*C)/(Kd+C); mean of three experiments; Figure 4B shows the responses at 10 μM
Conditions in all cases: both partners purified
[1] = target: T1, whirlin PDZ1-Hp (aa residues 137-246)
[2] = target: T2, whirlin-PDZ1 (aa residues 137-228)
[3] = target: T3, whirlin-PDZ2 (aa residues 272-368)
[4] = target: T4, whirlin-PDZ3 (aa residues 821-915)
[5] = target: T5, whirlin-HHD1 (aa residues 30-121)
[6] = target: T6, whirlin-NTR (aa residues 2-147)

| Binder | Kd [1] | Kd [2] | Kd [3] | Kd [4] | Kd [5] | Kd [6] |
| --- | --- | --- | --- | --- | --- | --- |
| B1 | 11 µM | 34 µM | 460 µM | 230 µM | > 1 mM | > 1 mM |
| B2 | 33 µM | 147 µM | > 1000 µM | > 1000 µM | > 1 mM | > 1 mM |
| B3 | 29 µM | 106 µM | > 1000 µM | > 1000 µM | > 1 mM | > 1 mM |
